Values belong to the molecule of their own block, whether it stands above or below them.
Assays:
[1] = biological target: T1, CrNAGK (Chlamydomonas reinhardtii, UniProt A8HPI1); test: coupled pyruvate kinase / lactate dehydrogenase NADH assay, […] nm; format: biochemical
T1 construct: gene CHLRE_01g015000v5; N-terminal His6 tag, E. coli LEMO-21(DE3), Ni-NTA; hexamer
T1 sequence (A8HPI1 44-340): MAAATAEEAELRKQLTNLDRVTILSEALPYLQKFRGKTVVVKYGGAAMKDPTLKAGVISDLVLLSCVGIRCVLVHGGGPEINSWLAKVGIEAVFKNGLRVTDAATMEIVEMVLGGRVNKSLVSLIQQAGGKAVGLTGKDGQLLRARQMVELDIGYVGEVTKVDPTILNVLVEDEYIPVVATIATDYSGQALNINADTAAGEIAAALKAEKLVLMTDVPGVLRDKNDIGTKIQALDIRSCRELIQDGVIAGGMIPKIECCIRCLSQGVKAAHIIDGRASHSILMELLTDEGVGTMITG

[2] = biological target: T2, CrPII-PpaNAGK complex (Polytomella parva, UniProt A0A2K3DLS9+A6XGV3); test: as above; format: biochemical
T2 construct: heterologous two-species complex, mixed equimolar: His6-PpaNAGK from residue 41 and CrPII with C-terminal Strep tag; NAGK holds arginine, PII holds 2-oxoglutarate

[3] = biological target: T3, CrPII-CrNAGK (Chlamydomonas reinhardtii, UniProt A8HPI1); test: as above; format: biochemical; settings: read-out: Arg-IC50
T3 construct: gene CHLRE_01g015000v5; His6-CrNAGK and CrPII with C-terminal Strep tag, mixed equimolar; E. coli expressed; with Nitrogen regulatory protein P-II, chloroplastic (PII signal transducer)

[4] = biological target: T4, PpaPII-CrNAGK complex; test: as above; format: biochemical, Chlamydomonas reinhardtii (NAGK); Polytomella parva (PII); settings: 50 mM NAG, 5 mM ATP, 20 mM MgCl2, pH 7.5; with PpaPII, no Gln; allosteric site of NAGK; unit implied in the sentence
T4 construct: gene NAGK; heterologous two-species complex, mixed equimolar: His6-CrNAGK and PpaPII from residue 50 with C-terminal Strep tag; NAGK holds arginine, PII holds glutamine

[5] = biological target: T4, PpaPII-CrNAGK complex; test: as above; format: biochemical, Chlamydomonas reinhardtii (NAGK); Polytomella parva (PII); settings: activation of complex inhibited by 0.12 mM arginine; 50 mM NAG, 5 mM ATP, pH 7.5; Gln site in PII Q-loop, allosteric
[6] = biological target: Chlamydomonas reinhardtii NAGK protein (Chlamydomonas reinhardtii); test: SEC-MALS; Superose 6 Increase 10/300 GL; 10 mM Tris pH 7.8, 300 mM NaCl, 2 mM MgCl2, 0.02% NaN3, 2% glycerol; proteins alone or PII mixed in excess with NAGK (4 : 1 monomeric concentrations), with or without 5 mM glutamine; fractions checked by SDS/PAGE
[7] = biological target: Chlamydomonas reinhardtii NAGK protein (Chlamydomonas reinhardtii); test: SPR; His6-NAGK immobilised on a Ni2+-loaded NTA chip (FC2), strep-tagged PII injected as analyte (50-1000 nM), 25 °C, HBS (10 mM HEPES, 150 mM NaCl, 2 mM MgCl2, 0.005% NP-40, pH 7.5), FC2-FC1; without effector molecules; Kd estimated from ΔRU
[8] = biological target: Polytomella parva N-acetyl-L-glutamate kinase (Polytomella parva) (UniProt A6XGV3); test: as above
[9] = biological target: Polytomella parva PII protein (Polytomella parva); test: SEC-MALS; Superose 6 Increase 10/300 GL; 10 mM Tris pH 7.8, 300 mM NaCl, 2 mM MgCl2, 0.02% NaN3, 2% glycerol; proteins alone or PII mixed in excess with NAGK (4 : 1 monomeric concentrations), with or without 5 mM glutamine; fractions checked by SDS/PAGE
[10] = substrate: CC(=O)N[C@@H](CCC(=O)O)C(=O)O; test: purified protein; format: biochemical, Polytomella parva; settings: 5 mM ATP, 20 mM MgCl2, 50 mM KCl, 50 mM imidazole pH 7.5, no arginine, no PII
[11] = biological target: the molecule itself; test: SEC-MALS; Superose 6 Increase 10/300 GL; 10 mM Tris pH 7.8, 300 mM NaCl, 2 mM MgCl2, 0.02% NaN3, 2% glycerol; proteins alone or PII mixed in excess with NAGK (4 : 1 monomeric concentrations), with or without 5 mM glutamine; fractions checked by SDS/PAGE

T2 sequence (A0A2K3DLS9 63-205, one chain of several): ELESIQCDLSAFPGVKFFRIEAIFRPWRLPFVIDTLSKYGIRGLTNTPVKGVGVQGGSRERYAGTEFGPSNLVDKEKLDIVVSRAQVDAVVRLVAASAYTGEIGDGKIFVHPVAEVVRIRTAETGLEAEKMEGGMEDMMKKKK

EC50 [5]: 1.1 mM
Molecule: NC(=O)CC[C@H](N)C(=O)O [glutamine]

Kd [7]: 86.3 nM
Kd [8]: 93.8 nM
percent of PpaPII-PpaNAGK complex dissociation from the sensor chip at 330 sec after the end of the injection phase (RU at 110 sec taken as 100%) [8]: 60.7%
percent of PpaPII-PpaNAGK complex dissociation from the sensor chip at 660 sec after the end of the injection phase (RU at 110 sec taken as 100%) [8]: 41.9%
stoichiometry N [9]: 3
Molecule: Polytomella parva PII protein (natural protein)

The remaining lines, values behind:

Molecule: N=C(N)NCCC[C@H](N)C(=O)O [arginine]
IC50 [1]: 120 ± 30 µM
IC50 [2]: 680 ± 150 µM
IC50 [3]: 250 ± 10 µM
IC50 [4]: 70 ± 10 µM

Molecule: Chlamydomonas reinhardtii NAGK protein (enzyme)
stoichiometry N [6]: 6

B1: Polytomella parva N-acetyl-L-glutamate kinase (enzyme, UniProt A6XGV3 41-329, looked up)
chain: TSDKKELTNLDRVTILSEALPYLQKFRGKTIVIKYGGAAMKDPTLKAGVITDLVLLNCVGIRTVLVHGGGPEINSWLSKVGIKPNFKNGLRVTDSATMDIVEMVLGGRVNKSLVSLIQQAGGRGVGLTGKDGQLLKARQMTELDIGHVGEVTKVDPTILNVMVNDGYIPVVATIASDPAGQALNINADTAAGEIAAALKAKKLVLMTDVPGVLRDKNDIKTKIHSLDIRGCRELIKDGIIAGGMIPKIECCIRCLAQGVDAAHIVDGRAKHSILMELLTDEGVGTMITG
notes: the full-length polypeptide has 329 amino acids; The discussion gives the transit peptide as 1-21, the results and methods as 1-40; also called PpaNAGK; NAGK; not shown: His6, N-terminal, kept
Km [10]: 2.35 ± 0.22 mM
kcat [10]: 211.5 ± 4.1 s⁻¹
stoichiometry N [11]: 6

From paper PMC7027753, “Interaction of N‐acetyl‐L‐glutamate kinase with the PII signal transducer in the non‐photosynthetic alga Polytomella parva: Co‐evolution towards a hetero‐oligomeric enzyme” (The Febs Journal, 2019)
